Assay [1] has as its target human p140 TrkA receptor (human) (UniProt P04629). The assay is described as follows: cell-based or functional assay.
Assay [2] has the same target. The assay is described as follows: 125I[NGF] binding to E25 cells blocked with 5 µM unlabeled NGF (defined as background).
For assay [3] the target is unchanged. The assay can be described thus: FACScan 5C3 surface staining of 4-3.6 cells after NGF treatment at 4° C., relative to vehicle (100%); competitor mAb 5C3.
Assay [4] has the same target. The assay can be described thus: FACScan 5C3 surface staining of 4-3.6 cells after NGF treatment at 37° C., relative to vehicle (100%); competitor mAb 5C3.
The target is the same in assay [5]. The assay is described as follows: summary of the 125I[5C3] binding studies.
The target is the same in assay [6]. The assay can be described thus: Scatchard analysis of 125I[5C3] binding to E25 cells.
The target is the same in assay [7]. The assay is described as follows: Scatchard analysis of 125I[5C3] binding to 4-3.6 cells.
For assay [8] the target is unchanged. The assay can be described thus: Scatchard analysis of 125I[5C3] binding to E25 cells, 4° C.
Assay [9] shares this target. The assay can be described thus: Scatchard analysis of 125I[5C3] binding to 4-3.6 cells, 4° C.
Assay [10] shares this target. The assay is described as follows: 125I[NGF] binding to E25 cells after preincubation with excess unlabeled mAb 5C3.
The target is the same in assay [11]. The assay is described as follows: 125I[NGF] (~1 nM) binding to E25 cells after preincubation with excess unlabeled mAb 5C3; competitor unlabeled mAb 5C3.

Chain of UniProt P04629 (P04629 33-796): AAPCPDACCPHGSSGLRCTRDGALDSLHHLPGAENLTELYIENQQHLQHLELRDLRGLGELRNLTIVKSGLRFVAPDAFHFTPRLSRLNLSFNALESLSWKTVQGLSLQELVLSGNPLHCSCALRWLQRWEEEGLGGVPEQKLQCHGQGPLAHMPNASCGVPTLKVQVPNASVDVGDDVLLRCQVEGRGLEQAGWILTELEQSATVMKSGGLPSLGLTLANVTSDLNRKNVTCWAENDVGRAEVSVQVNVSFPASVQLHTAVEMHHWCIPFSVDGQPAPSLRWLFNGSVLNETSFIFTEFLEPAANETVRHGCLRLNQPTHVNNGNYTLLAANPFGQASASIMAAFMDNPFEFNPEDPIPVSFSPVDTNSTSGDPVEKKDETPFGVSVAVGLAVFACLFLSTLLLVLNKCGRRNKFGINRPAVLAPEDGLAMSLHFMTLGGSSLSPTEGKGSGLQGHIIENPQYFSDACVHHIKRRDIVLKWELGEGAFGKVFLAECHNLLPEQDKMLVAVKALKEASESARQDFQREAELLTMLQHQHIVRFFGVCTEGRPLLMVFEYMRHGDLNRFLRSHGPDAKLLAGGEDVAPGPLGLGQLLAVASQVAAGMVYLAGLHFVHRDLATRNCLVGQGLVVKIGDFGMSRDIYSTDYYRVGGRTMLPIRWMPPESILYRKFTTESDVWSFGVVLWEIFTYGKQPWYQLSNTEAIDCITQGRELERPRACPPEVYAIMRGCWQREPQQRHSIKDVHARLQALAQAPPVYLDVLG

As to Nerve Growth Factor (ligand), in [1], the FOLD INCREASE IN FOCI with respect to mIgG treated cells was 1.6 fold, the TYPICAL CELLS/FOCI (E25 cells in soft agar) worked out at 24 cells/foci, the fold increase in PY of TrkA with respect to untreated cells (4-3.6 cells) came out at 3.8 fold and the fold increase in PY of TrkA with respect to untreated cells (E25 cells) was determined as 6.5 fold. Further, the % NGF BINDING in assay [2] was 0%. The substance further gave a % 5C3 STAINING in [3] of 83%. In [4], this substance registered a % 5C3 STAINING of 75%.

In assay [1], anti-human TrkA monoclonal antibody 5C3 showed a % 5C3 STAINING after 5C3 (0.01 µg/ml) treatment at 4° C. (receptor internalization, 4-3.6 cells) of 96%; a % 5C3 STAINING after 5C3 (0.01 µg/ml) treatment at 37° C. (receptor internalization, 4-3.6 cells) of 77%; an FOLD INCREASE IN FOCI with respect to mIgG treated cells of 1.9 fold; a TYPICAL CELLS/FOCI (E25 cells in soft agar) greater than 48 cells/foci. In assay [1], this substance registered a fold increase in PY of TrkA with respect to untreated cells (4-3.6 cells) of 3.4 fold and a fold increase in PY of TrkA with respect to untreated cells (E25 cells) of 2.7 fold. Further, the Kd (commonly the equilibrium constant for the complex coming apart) in assay [5] came out at 2 nM. For the same substance, the 5C3 binding sites/cell in assay [6] is 250000 sites/cell. In assay [7], this substance registered a 5C3 binding sites/cell of 200000 sites/cell. Further, the Kd in assay [8] was 1.6 nM. The Kd in [9] was determined as 3 nM. Besides, the % inhibition of 125I[NGF] binding in assay [10] amounted to 60%. In [11], the % NGF BINDING turned out to be 39.3%.
